Data from patent US20230287092A1 (AstraZeneca / MedImmune, published 2023).

Molecular target: cynomolgus monkey Aβ42 (cynomolgus monkey, UniProt P53601 672-713)
Assay: cell-based or functional assay

cynomolgus monkey Aβ42, sequence (P53601 672-713 limits assumed): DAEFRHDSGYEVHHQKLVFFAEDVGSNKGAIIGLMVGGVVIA

increase in total CSF Aβ42, 14 weekly doses, cynomolgus monkeys: ≤ 7.7 fold
increase in total plasma Aβ42 against control, 14 weekly doses (10 or 100 mg/kg IV, 75 mg/kg SC), cynomolgus monkeys: ≤ 2060 fold
B1: MEDI1814 (antibody, V domains shown)
VH: EVQLLESGGGLVQPGGSLRLSCAASMGNFNYQTMWWVRQAPGKGLEWVSVIGKTNENIAYADSVKGRFTISRDNSKNTLYLQMNSLRAEDTAVYYCAREWMDHSRPYYYYGMDVWGQGTLVTVSS
VL: SYELTQPPSVSVSPGQTASITCSGHNLEDKFASWYQQKPGQSPVLVIYRDDKRPSGIPERFSASNSGHTATLTISGTQAMDEADYYCSSQDTVTRVFGGGTKLTVL
